According to patent US8722043B2, “Induction of p53 expression by neutralization of neuropilin-2 for the treatment of cancers” (Diaclone, priority 2008, dated 2014):

Legend:
[1] = system: Colo320 human tumour cells; assay: Tumour colony formation in semi-solid agar medium; format: cell-based
Protocol: In order to determine whether the ITAC-B1 antibody has a neutralizing activity on the formation of tumour colonies in vitro, tests for tumour colony formation in vitro in a semi-solid agar medium containing agar were carried out. The principle of this test is based on bringing Colo320 human tumour cells (which express NRP-2 at their membrane surface and, furthermore, naturally secrete VEGF into the culture medium) into contact with the ITAC-B1 antibody. 4000 Colo320 cells are seeded into each well of a 24-well plate, in a semi-solid medium containing agar, and in the presence of 10 μg/ml of anti-NRP-2 antibody ITAC-B1. By way of comparison, the same test is carried out in the presence of cytotoxic agents with a proven action, i.e. 5-fluorouracil (5-FU), used at a rate of 50 μg/ml, or of Avastin® (bevacizumab: humanized monoclonal antibodies directed against VEGF), used at a rate of 50 μg/ml, or in the presence of a control isotype antibody (mouse IgG1 monoclonal antibody (BZ1)), used at a rate of 10 μg/ml.
At 10 days post-seeding, the colonies were counted under an optical microscope.
Since neuropilin-2 is a coreceptor for VEGF, it was verified whether the activity of ITAC-B1 was dependent on an interaction between NRP-2 and the VEGF produced by the Colo320 cells. With this aim, the tests for Colo320-cell colony formation were carried out under the conditions described above, and in the presence of ITAC-B1 antibody (10 μg/ml), of bevacizumab (50 μg/ml) or of control antibody (10 μg/ml), used separately or in combination.
The results are given in FIG. 10: the y-axis represents the number of colonies formed; on the x-axis, the antibodies present in the culture medium are indicated by a “+”.

HT29-NRP-2 cells = assay: Annexin V-APC apoptosis test; format: cell-based, human
Protocol: (§1) In order to determine the ability of the ITAC-B1 antibody to induce apoptosis of tumour cells expressing NRP-2, an in vitro Annexin V-APC apoptosis test was carried out (BD Pharmingen, San Diego, Calif.). This test is based on the externalization of phosphatidylserin by apoptotic cells and on the binding of Annexin V-APC to this molecule.
1 ml of DMEM medium containing 10% of inactivated FCS and 100 000 HT29-NRP-2 cells or 100 000 HT29ctrl cells were seeded, per well, into a 24-well Nunc plate. […] In parallel, “cells alone” controls were carried out, as were negative controls (anti-human mouse IgG1 antibody (BZ1) at the same concentrations as the ITAC-B1 antibody).
[…] When the cells began to detach, 500 μl of DMEM medium-10% FCS were added per well. The cells were then centrifuged, washed twice in PBS, and then taken up in 300 μl of 1× binding buffer (provided in the kit), and then 5 μl of Annexin V-APC were subsequently added to 100 μl of this solution.
The panels of FIG. 13 are point-cloud representations of the flow cytometry analysis. For each of the panels, the fluorescence intensity (corresponding to the labelling of the cells with Annexin V-APC) is represented on the x-axis. The y-axis indicates the granulosity of the cells (Side Scatter or SSC). […] The percentage of cells labelled with Annexin V-APC (corresponding to the percentage of cells having entered into apoptosis) is indicated at the bottom-right of each panel.
The apoptosis induced was then measured by labelling with Annexin V-APC as described above.
The panels of FIG. 15 are point-cloud representations of the flow cytometry analysis. For each of the panels, the fluorescence intensity (corresponding to the labelling of the cells with Annexin V-APC) is represented on the x-axis. The y-axis indicates the granulosity (side scatter) of the cells. The conditions of treatment with the antibodies and the Avastin® are indicated to the left of the panels. The percentage of cells labelled with the Annexin V-APC, corresponding to the percentage of cells having entered into apoptosis, is indicated at the top-right of each panel.

HT29ctrl cells = assay: Annexin V-APC apoptosis test; format: cell-based, human; details: 0.5, 1 and 5 μg/ml; 16 hours
Protocol: as §1
1 ml of DMEM medium containing 10% of inactivated FCS and 100 000 HT29-NRP-2 cells or 100 000 HT29ctrl cells were seeded, per well, into a 24-well Nunc plate. After adhesion of the cells (3 hours), three concentrations of ITAC-B anti-NRP-2 antibody (0.5 μg/ml, 1 μg/ml and 5 μg/ml) were tested in various wells. In parallel, “cells alone” controls were carried out, as were negative controls (anti-human mouse IgG1 antibody (BZ1) at the same concentrations as the ITAC-B1 antibody).
After incubation for 16 hours, the culture supernatant was drawn off and 500 μl of trypsin-EDTA were added to each well and left in contact for 10 minutes. When the cells began to detach, 500 μl of DMEM medium-10% FCS were added per well. […]
For each of the panels of FIG. 12, the number of events (number of cells) is indicated on the y-axis and the fluorescence intensity (corresponding to the labelling of the cells with the Annexin V-APC) is represented on the x-axis. […]

B1: ITAC-B1: anti-human neuropilin-2 murine monoclonal antibody, VH SEQ ID No. 2, VL SEQ ID No. 4, produced by hybridoma CNCM 1-4054 (antibody, listed as Mus musculus, V domains shown)
VH: EVKLQESGAELVKPGASVKLSCTVSGFNIKDTYIHWVIQRPEQGLEWLGRIDPANGNTKYDPKFQGKATITADTSSNTAYLQLSSLTSEDTAVYYCARWAVVGDYWGQGTTLTVSS
VL: YCDHPLYKFLHVSAGDRVTITCKASQSVSDDVAWYQQKPGQSPKLLIYSASNRYTGVPDRFTGSGYGTDFTFTISTVQPEDLAVYFCQQDYSSPTFGSGTKLELK
With B1 the “number of colonies compared with the cells alone control” value ([1]; ITAC-B1 10 μg/ml alone (FIG. 10)) was “greatly reduced”, the number of colonies ([1]; ITAC-B1 10 μg/ml combined with bevacizumab 50 μg/ml (FIG. 10)) was “identical to that observed when the medium contains the ITAC-B1 antibody alone” and the “apoptosis induced (Annexin V-APC labelling) as a function of concentration” value (HT29-NRP-2 cells; 0.5, 1 and 5 μg/ml, 16 hours) was “dose-dependent”. For the same molecule, the “dose at which apoptosis of cells expressing NRP-2 is induced” value (HT29-NRP-2 cells; 16 hours incubation, 0.5, 1 and 5 μg/ml tested) was “greater than or equal to 1 μg/ml”, the “combined action with anticancer molecules (5-FU, irinotecan) on apoptosis” value (HT29-NRP-2 cells; FIG. 13) was “synergy of action” and the “percentage of cells labelled with Annexin V-APC (apoptosis)” value (“percentage of cells labelled” for short) (HT29-NRP-2 cells; ITAC-B1 2.5 μg/ml jointly with 5-FU 10 μg/ml (FIG. 13)) was about 78.5%. The “percentage of cells labelled” value (HT29-NRP-2 cells; ITAC-B1 2.5 μg/ml with irinotecan 10 μg/ml (FIG. 13)) was about 51%, the “percentage of cells labelled” value (HT29-NRP-2 cells; ITAC-B1 5 μg/ml jointly with 5-FU 10 μg/ml (FIG. 13)) was about 80% and the “percentage of cells labelled” value (HT29-NRP-2 cells; ITAC-B1 5 μg/ml with irinotecan 10 μg/ml (FIG. 13)) was about 58%. The “percentage of cells labelled” value (HT29-NRP-2 cells; antibody 20 μg/ml, 6 hours, cells cultured with Avastin (bevacizumab) 50 μg/ml (FIG. 15)) was “approximately 58%”, the “percentage of cells labelled” value (HT29-NRP-2 cells; antibody 20 μg/ml, 6 hours, without Avastin (FIG. 15)) was about 51% and the “ability to induce apoptosis of tumour cells expressing neuropilin-2 (selection of clones)” value (HT29-NRP-2 cells; selection criterion of the hybridoma clones) was “ability to induce apoptosis of tumour cells expressing neuropilin-2”. For the same molecule, the “apoptosis (Annexin V-APC labelling)” value (HT29ctrl cells) was “does not bring about the apoptosis of cells not expressing NRP-2”.
